Laboratory results taken from patent US20120277286A1, “COMPOSITIONS AND METHODS FOR THE TREATMENT OR PREVENTION OF MITOCHONDRIAL DISEASES” (The Government of the USA, as represented by the Secretary, …, priority 2009, published 2012).
Residue numbers refer to the chain shown, from its start. Names may count otherwise.

B1: L347P: patient mutant of PINK1, V5-tagged (protein, UniProt Q9BXM7 78-581, looked up, variant L347P)
Serine/threonine-protein …: AARLQRQFVVRAWGCAGPCGRAVFLAFGLGLGLIEEKQAESRRAVSACQEIQAIFTQKSKPGPDPLDTRRLQGFRLEEYLIGQSIGKGCSAAVYEATMPTLPQNLEVTKSTGLLPGRGPGTSAPGEGQERAPGAPAFPLAIKMMWNISAGSSSEAILNTMSQELVPASRVALAGEYGAVTYRKSKRGPKQLAPHPNIIRVLRAFTSSVPLLPGALVDYPDVLPSRLHPEGLGHGRTLFLVMKNYPCTLRQYLCVNTPSPRLAAMMLLQLPEGVDHLVQQGIAHRDLKSDNILVELDPDGCPWLVIADFGCCLADESIGLQLPFSSWYVDRGGNGCLMAPEVSTARPGPRAVIDYSKADAWAVGAIAYEIFGLVNPFYGQGKAHLESRSYQEAQLPALPESVPPDVRQLVRALLQREASKRPSARVAANVLHLSLWGEHILALKNLKLDKMVGWLLQQSAATLLANRLTEKCCVETKMKMLFLANLECETLCQAALLLCSWRAAL
modifications: V5 tag
notes: patient mutant of PINK1, V5-tagged
B2: A168P: patient mutant of PINK1, V5-tagged (protein, UniProt Q9BXM7 78-581, looked up, variant A168P)
Serine/threonine-protein …: B1 Serine/threonine-protein … with A91P, P270L
modifications: V5 tag
notes: as for B1
B3: H271Q: patient mutant of PINK1, V5-tagged (protein, UniProt Q9BXM7 78-581, looked up, variant H271Q)
Serine/threonine-protein …: B1 Serine/threonine-protein … with H194Q, P270L
modifications: V5 tag
notes: as for B1
B4: G411S: PINK1 polymorphism, V5-tagged (protein, UniProt Q9BXM7 78-581, looked up, variant G411S)
Serine/threonine-protein …: B1 Serine/threonine-protein … with P270L, G334S
modifications: V5 tag
notes: PINK1 polymorphism, V5-tagged

Key:
[1] = test system: HeLa cells; test: Parkin-induced mitophagy, loss of mitochondria by immunocytochemistry; format: cell-based; conditions: YFP-Parkin HeLa cells, 10 μM CCCP+10 mM 3-methyladenine or +100 nM Bafilomycin, 24 hours
Description: Cultured cells seeded in borosilicate chamber slides (Thermo Fisher Scientific) were transfected or cotransfected with YFP-Parkin, ECFP-Parkin, mCherry-Parkin, DsRed-Mito (Clontech Laboratories, Inc.), pcDNA3.1 (Invitrogen), vMIA, and/or Drp1K38A constructs using Fugene 6 (Roche). Parkin-myc was a gift from M. Cookson (National Institutes of Health, Bethesda, Md.). Cells were fixed 12-24 hours after transfection with 4% paraformaldehyde in PBS. Cells were stained with following primary antibodies: mouse monoclonal cytochrome c (BD), rabbit polyclonal Tom20 (Santa Cruz Biotechnology, Inc.), mouse monoclonal Parkin PRK8 (Santa Cruz Biotechnology, Inc.), rabbit polyclonal PMP70 (Invitrogen), and/or mouse monoclonal TRAP1 (Abcam); and with the following secondary antibodies: mouse and/or rabbit Alexa 488, 594, and 633 (Invitrogen). For assessment of mitochondrial membrane potential, cells were pulsed with 50 nM Mito-Tracker red (Invitrogen) for 15 min, washed, and incubated for an additional 10 minutes before fixation or imaging. For assessment of cell metabolic potential, cell nuclei were stained with Hoechst 33342 (Invitrogen).
(§1) Confocal microscopy of fixed samples, scoring of Parkin recruitment and Parkininduced mitophagy, and live cell imaging were performed as described previously (Narendra (2008) J Cell Biol 183: 795-803). Experiments in Mfn1/2 null cells were performed as described previously with minor modifications.
(§2) Confocal microscopy of fixed samples, scoring of Parkin recruitment and Parkin-induced mitophagy, and live cell imageing were performed as described previously (Narendra (2008) J Cell Biol 183: 795-803). Experiments in Mfn1/2 null cells were performed as described previously with minor modifications described in the supplemental methods (Narendra (2008) J Cell Biol 183: 795-803).

[2] = test system: PINK1+/+ or PINK1−/− MEFs; test: YFP-Parkin recruitment to mitochondria in MEFs; format: cell-based, mouse; conditions: 20 μM CCCP, 3 hours; for reconstitution of YFP-Parkin recruitment: PINK1−/− primary MEFs co-transfected with construct
Description: HeLa YFP-Parkin, PINK1+/+ SV40 transformed MEFs cells, PINK1−/− SV40 transformed MEF, M17 neuroblastoma control shRNA, M17 neuroblastoma PINK1, and Mfn1/2−/− MEF cell lines have been described previously (Narendra (2008) J Cell Biol 183: 795-803). PINK1+/+ and PINK1−/− primary MEFs were isolated from embryos using a standard protocol (Gautier (2008) Proc Natl Acad Sci USA 105: 11364-11369). Parkin+/+ and Parkin−/− transformed MEFs were created by isolation of primary cells from embryos of B6.129S4-Park2tm1Shn/J mice (Jackson Labs), using a standard protocol (Gautier (2008) Proc Natl Acad Sci USA 105: 11364-11369), followed by retroviral transduction of SV40 (Applied Biological Materials, Inc.). YFP-Parkin, YFPParkin mutants, mCherry-Parkin, PINK1-YFP, PINK1 KD-YFP, PINK1 Δ1-110-YFP, and Opa3-PINK1 Δ1-110-YFP are in C1 or N1 Clontech vectors. PINK1WT-V5, PINK1 KD-V5, and PINK1 Δ1-156-V5 are in pDest40 vector (Invitrogen). PINK1 patient mutations are in pLenti-V5 vector (Invitrogen). PINK1-myc is in a pCMBTNT vector (Promega).
as §1
HeLa YFP-Parkin, E18 Rat cortical neurons, PINK1^+/+ SV40 transformed MEFs cells, PINK1^−/− SV40 transformed MEF, M17 neuroblastoma control shRNA, M17 neuroblastoma PINK1, Mfn1/2^−/− MEF, and Parl^−/− MEF cell lines have been described previously (Narendra (2008) J Cell Biol 183: 795-803). PINK1^+/+ and PINK1^−/− primary MEFs were isolated from embryos using a standard protocol (Gautier (2008) Proc Natl Acad Sci USA 105: 11364-11369). Parkin^+/+ and Parkin^−/− transformed MEFs were created by isolation of primary cells from embryos of B6.129S4-Park2^tm1Shn/J mice (Jackson Labs), using a standard protocol (Gautier (2008) Proc Natl Acad Sci USA 105: 11364-11369), followed by retroviral transduction of SV40 (Applied Biological Materials, Inc.). YFP-Parkin, YFP-Parkin mutants, mCherry-Parkin, PINK1-YFP, PINK1 KD-YFP, PINK1 Δ1-110-YFP, and Opa3-PINK1 Δ1-110-YFP are in C1 or N1 Clontech vectors. PINK1WT-V5, PINK1 KD-V5, and PINK1 Δ1-156-V5 are in pDest40 vector (Invitrogen). PINK1 patient mutations are in the pLenti-V5 vector (Invitrogen). PINK1-myc is in a pCMBTNT vector (Promega). The PARL shRNA construct targeting (5′ […] 3′) is in the pSuper-GFP vector. To make FRB-PINK1 (111-581)-YFP and Tom20 (1-33)-FKBP, PCR fragments containing PINK1 (111-581)-YFP and Tom20 (1-33) were cloned into the BamHI site of the pC4-RHE vector and the EcoRI and XbaI sites of pC4M-F2E vectors, respectively (ARIAD Pharmaceuticals). The rapamycin analogue AP21967 was obtained from ARIAD Pharmaceuticals. The PARL shRNA construct targeting (5′ […] 3′) is in the pSuper-GFP vector (OligoEngine).
as §2

Row | Molecule | effect on Parkin-induced mitophagy [1] | reconstitution of YFP-Parkin recruitment [2] | other results
1 | Cn1cnc(N)c2ncnc1-2 [3-methyl adenine, reference compound] | blocked | – | –
2 | CO/C1=C\C(C)=C\[C@@H](C)[C@@H](O)[C@@H](C)C/C(C)=C/C=C/[C@H](OC)[C@@H]([C@@H](C)[C@@H](O)[C@H](C)[C@@]2(O)C[C@@H](O)[C@H](C)[C@@H](C(C)C)O2)OC1=O [bafilomycin, reference compound] | blocked | – | –
3 | B1 | – | failed to reconstitute | –
4 | B2 | – | failed to reconstitute | –
5 | B3 | – | failed to reconstitute | –
6 | B4 | – | – | YFP-Parkin recruited to mitochondria, % of cells ([2]; PINK1−/− primary MEFs expressing the PINK1 construct): 74.2±5.4%
